Data published in patent US9144594B2, “Cathepsin L mediated diseases and associated methods and products” (University of Miami, priority 2005, dated 2015).

B1: dynK44A: dominant-negative dynamin mutant that cannot bind GTP (protein, UniProt Q05193 1-864, looked up, variant K44A)
Dynamin-1: MGNRGMEDLIPLVNRLQDAFSAIGQNADLDLPQIAVVGGQSAGASSVLENFVGRDFLPRGSGIVTRRPLVLQLVNATTEYAEFLHCKGKKFTDFEEVRLEIEAETDRVTGTNKGISPVPINLRVYSPHVLNLTLVDLPGMTKVPVGDQPPDIEFQIRDMLMQFVTKENCLILAVSPANSDLANSDALKVAKEVDPQGQRTIGVITKLDLMDEGTDARDVLENKLLPLRRGYIGVVNRSQKDIDGKKDITAALAAERKFFLSHPSYRHLADRMGTPYLQKVLNQQLTNHIRDTLPGLRNKLQSQLLSIEKEVEEYKNFRPDDPARKTKALLQMVQQFAVDFEKRIEGSGDQIDTYELSGGARINRIFHERFPFELVKMEFDEKELRREISYAIKNIHGIRTGLFTPDMAFETIVKKQVKKIREPCLKCVDMVISELISTVRQCTKKLQQYPRLREEMERIVTTHIREREGRTKEQVMLLIDIELAYMNTNHEDFIGFANAQQRSNQMNKKKTSGNQDEILVIRKGWLTINNIGIMKGGSKEYWFVLTAENLSWYKDDEEKEKKYMLSVDNLKLRDVEKGFMSSKHIFALFNTEQRNVYKDYRQLELACETQEEVDSWKASFLRAGVYPERVGDKEKASETEENGSDSFMHSMDPQLERQVETIRNLVDSYMAIVNKTVRDLMPKTIMHLMINNTKEFIFSELLANLYSCGDQNTLMEESAEQAQRRDEMLRMYHALKEALSIIGDINTTTVSTPMPPPVDDSWLQVQSVPAGRRSPTSSPTPQRRAPAVPPARPGSRGPAPGPPPAGSALGGAPPVPSRPGASPDPFGPPPQVPSRPNRAPPGVPSRSGQASPSRPESPRPPFDL
B2: dynK694A: dominant activator dynamin mutant impaired in self-assembly (protein)
chain: MGNRGMEDLIPLVNRLQDAFSAIGQNADLDLPQIAVVGGQSAGKSSVLENFVGRDFLPRGSGIVTRRPLVLQLVNATTEYAEFLHCKGKKFTDFEEVRLEIEAETDRVTGTNKGISPVPINLRVYSPHVLNLTLVDLPGMTKVPVGDQPPDIEFQIRDMLMQFVTKENCLILAVSPANSDLANSDALKVAKEVDPQGQRTIGVITKLDLMDEGTDARDVLENKLLPLRRGYIGVVNRSQKDIDGKKDITAALAAERKFFLSHPSYRHLADRMGTPYLQKVLNQQLTNHIRDTLPGLRNKLQSQLLSIEKEVEEYKNFRPDDPARKTKALLQMVQQFAVDFEKRIEGSGDQIDTYELSGGARINRIFHERFPFELVKMEFDEKELRREISYAIKNIHGIRTGLFTPDMAFETIVKKQVKKIREPCLKCVDMVISELISTVRQCTKKLQQYPRLREEMERIVTTHIREREGRTKEQVMLLIDIELAYMNTNHEDFIGFANAQQRSNQMNKKKTSGNQDEILVIRKGWLTINNIGIMKGGSKEYWFVLTAENLSWYKDDEEKEKKYMLSVDNLKLRDVEKGFMSSKHIFALFNTEQRNVYKDYRQLELACETQEEVDSWKASFLRAGVYPERVGDKEKASETEENGSDSFMHSMDPQLERQVETIRNLVDSYMAIVNKTVRDLMPKTIMHLMINNTAEFIFSELLANLYSCGDQNTLMEESAEQAQRRDEMLRMYHALKEALSIIGDINTTTVSTPMPPPVDDSWLQVQSVPAGRRSPTSSPTPQRRAPAVPPARPGSRGPAPGPPPAGSALGGAPPVPSRPGASPDPFGPPPQVPSRPNRAPPGVPSRSGQASPSRPESPRPPFDL
B3: dynL356Q, G358V: dynamin mutant (SEQ ID NO.3) not recognized by cathepsin L; ELSGGA mutated to EQSVGA (protein, listed as Homo sapiens)
chain: MGNRGMEDLIPLVNRLQDAFSAIGQNADLDLPQIAVVGGQSAGKSSVLENFVGRDFLPRGSGIVTRRPLVLQLVNATTEYAEFLHCKGKKFTDFEEVRLEIEAETDRVTGTNKGISPVPINLRVYSPHVLNLTLVDLPGMTKVPVGDQPPDIEFQIRDMLMQFVTKENCLILAVSPANSDLANSDALKVAKEVDPQGQRTIGVITKLDLMDEGTDARDVLENKLLPLRRGYIGVVNRSQKDIDGKKDITAALAAERKFFLSHPSYRHLADRMGTPYLQKVLNQQLTNHIRDTLPGLRNKLQSQLLSIEKEVEEYKNFRPDDPARKTKALLQMVQQFAVDFEKRIEGSGDQIDTYEQSVGARINRIFHERFPFELVKMEFDEKELRREISYAIKNIHGIRTGLFTPDMAFETIVKKQVKKIREPCLKCVDMVISELISTVRQCTKKLQQYPRLREEMERIVTTHIREREGRTKEQVMLLIDIELAYMNTNHEDFIGFANAQQRSNQMNKKKTSGNQDEILVIRKGWLTINNIGIMKGGSKEYWFVLTAENLSWYKDDEEKEKKYMLSVDNLKLRDVEKGFMSSKHIFALFNTEQRNVYKDYRQLELACETQEEVDSWKASFLRAGVYPERVGDKEKASETEENGSDSFMHSMDPQLERQVETIRNLVDSYMAIVNKTVRDLMPKTIMHLMINNTKEFIFSELLANLYSCGDQNTLMEESAEQAQRRDEMLRMYHALKEALSIIGDINTTTVSTPMPPPVDDSWLQVQSVPAGRRSPTSSPTPQRRAPAVPPARPGSRGPAPGPPPAGSALGGAPPVPSRPGASPDPFGPPPQVPSRPNRAPPGVPSRSGQASPSRPESPRPPFDL

Assays:
[1] = system: dynamin-dynamin interactions; test: FLIM analysis of dynamin-dynamin interactions (self-assembly) in podocytes; type: cell-based, mouse; details: in ps
Description: In one embodiment the cell-based assay to monitor dynamin-dynamin interactions is performed on a cultured mouse podocyte cell line and the readout of dynamin self-assembly using fluorescence lifetime imaging microscopy (FLIM). FLIM is based on the fluorescence resonance energy transfer (FRET) between the donor and acceptor that shortens the lifetime of the donor if the acceptor distance is within ≈100 Å (10 nm). […] The assay is based on overexpressing dynamin in podocytes, and subsequently staining fixed cells with monoclonal anti-dynamin antibodies that have been conjugated with donor or acceptor florophores. In one embodiment of the invention, Alexa-488 is used as the donor florophore and Alexa-568 is used as the acceptor florophore. In yet another embodiment the donor florophore is dynamin conjugated enhanced-cyan fluorescence protein (ECFP) and the acceptor is dynamin conjugated enhanced yellow-fluorescence protein (EYFP). It will be appreciated by the person of ordinary skill in the art that numerous combinations of FRET donor and acceptors can be used, which are readily available and known. In one embodiment, the FLIM assay is carried out in COS cells and the donor can be selected from the list consisting of: ECFP-WT, ECFP-1690K, ECFP-K44A, ECFP-K694A, and the -acceptor can be selected from the list consisting of: EYFP, EYFP-WT, EYFP-K44A, EYFP-1690K, EYFP-K694A. In yet another embodiment the FLIM assay is performed in podocytes and the donor is GTPase-Alexa488 and the acceptor is selected from the list consisting of: DAM-Alexa568, GTPase-Alexa568, and Hudyl-Alexa568. Cells are stained by mixing both donor and acceptor florophores in equal amounts, and examining the spatially-restricted lifetime shortening in cells detects the localization of dynamin-dynamin interactions in cells. Since dynamin-dynamin interactions are vital for the function of the podocyte, it will be appreciated by the person of ordinary skill in the art that this assay can now be used to screen peptides, small molecules or drugs which can affect these molecular interactions. For example such molecules are cytocholasin D, jasplakinolide, colchisine, dynK44A, dynK694A, dynWT, dynI690K, dynR725A (SEQ ID NO.4), dynL356Q, G358V, (SEQ ID NO.3) any combination thereof, etc.
In order to test the hypothesis that self-assembly of dynamin was protecting its cathepsin L processing in cultured podocytes, dynamin self-assembly in live cells was examined using fluorescence lifetime imaging microscopy (FLIM). FLIM is based on the fluorescence resonance energy transfer (FRET) between the donor and the acceptor that shortens the lifetime of the donor if the acceptor distance is within ≈100 Å (10 nm). […] A FLIM-assay was developed that specifically detects dynamin self-assembly into the higher order structures in podocytes. The assay is based on overexpressing dynamin in podocytes, and subsequently staining fixed cells with monoclonal anti-dynamin antibodies that have been conjugated with either Alexa-488 (donor florophore) or Alexa-568 (acceptor florophore). Cells are stained by mixing both florophores in equal amounts, and examining lifetime of Alexa-488. […] Importantly, FRET only occurred in the vicinity of the membrane. […] Thus, both dominant activating mutants, dynK694A and dynR725A, are impaired for assembly into a supramolecular structures in podocytes under normal conditions. […] Loss of FRET measured FLIM correlates with the loss of p40 proteolytic fragment in cultured podocytes. And presence of p40 in cells expressing dynR725A under normal conditions correlates with the lack of dynR725A assembly detected by FLIM. The opposite is true for the dynWT; lack of p40 under control conditions when FLIM is present, and appearance of the p40 upon LPS treatment with no measurable FRET. […] Finally, proteolytic processing of dynamin after LPS treatment is also observed in vivo. […]

[2] = system: mice; test: Protein in urine after in vivo gene delivery of dynamin mutants into healthy mice (Bradford); set-up: species or system mouse; details: for proteinuria after gene delivery, in words: healthy mice
Description: Next, the level of urinary protein loss following gene delivery of dynamin mutants was examined (Table 2). […] The expression of K44A was associated with severe proteinuria (1.18 mg/ml) at peak gene expression time of 10 hours post injection. The reduction in gene expression was paralleled by a reduction in proteinuria (0.77 mg/ml). Gene transfer of dynR725A caused an increase in proteinuria (0.58 mg/ml). Although this was not a significant increase, it is probable that it is a consequence of the partial podocyte FP effacement seen after gene transfer of dynR725A, and due to increase in the stress fibers formation observed in cultured podocytes.
To explore whether functional dynamin is required for the maintenance of FP morphology in healthy kidneys, it was examined whether expression of dominant negative dynK44A disrupts podocyte function. […] In contrast, podocin driven expression of dynK44A, the dynamin mutant that cannot bind GTP, caused FP effacement (FIG. 21B) and proteinuria (1.1±0.26 mg/ml) at the peak of gene expression […] after gene delivery (FIGS. 21D and 25C). […] In other words, tight regulation of the life-time of the GTP-bound form of dynamin appears to be required for normal FP morphology and ultrafiltration.
CatL plasmids encoding short and long CatL (Goulet et al., Biol Chem 387, 1285-1293 (2004)), Dyn1 plasmids (pcDNA-driven) or p2.5 Podocin-driven (Moeller et al., Genesis 35, 39-42 (2003)) were introduced into mice (n>10, each construct) using the TransIT in vivo gene delivery system according to the manufacturer's instruction (Mirus Bio Corporation, Madison, Wis.). 10 and 24 h after gene delivery, proteinuria was assessed by Multistix 8 SG strips (Bayer Corporation, Elkhart, Ind.), and Bradford protein assay (Sigma, Saint Louis, Mo.). From the same urines the protein creatinine ratio was determined with Albuwell M and Creatinine Companion protein creatinine ELISA kits (Exocell Inc., Philadelphia, Pa.).

[3] = Table 4, donor GTPase-a488, acceptor Hudy1-a568
[4] = Table 2A, gene delivery into mice, t = 0
[5] = Table 2A, gene delivery into mice, t = 10 h
[6] = Table 2A, gene delivery into mice, t = 24 h

Molecule | Mean Lifetime (γ1) ([1]; Table 1, donor GTPase-Alexa488, acceptor Hudy1-Alexa568, podocytes overexpressing the dynamin variant) | Mean Lifetime (γ1) ([1]; Table 4, donor GTPase-a488, acceptor GTPase-a568) | Mean Lifetime (γ1) [1, 3] | Protein in the urine [2, 4] [mg/mL] | Protein in the urine [2, 5] [mg/mL] | Protein in the urine [2, 6] [mg/mL] | proteinuria after gene delivery, in words [2] | Protein in the urine ([2]; Table 2A, gene delivery into mice, t = 10 h, listed as Dyn K44A) [mg/mL] | Protein in the urine ([2]; Table 2A, gene delivery into mice, t = 10 h, listed as K44A) [mg/mL] | Protein in the urine ([2]; Table 2A, gene delivery into mice, t = 24 h, listed as Dyn K44A) [mg/mL] | Protein in the urine ([2]; Table 2A, gene delivery into mice, t = 24 h, listed as K44A) [mg/mL] | Protein in the urine ([2]; Table 5 Basic Phenotype, podocin-driven vectors, t = 14 h) [mg/mL]
dynWT: wild type dynamin overexpressed by adenovirus or delivered as dynamin 1 cDNA | 2212 ± 65 | 2423 ± 46 | 2254 ± 60 | 0.27 ± 0.06 | 0.37 ± 0.08 | 0.42 ± 0.12 | did not lead to increase of the protein in urine | – | – | – | – | –
B1 | – | – | 2515 ± 43 | 0.23 ± 0.11 | – | – | – | 1.18 ± 0.22 | 1.18 | 0.77 ± 0.11 | 0.77 | 1.1 ± 0.26
B2 | – | – | 2408 ± 40 | – | – | – | – | – | – | – | – | –
B3 | – | – | – | 0.22 ± 0.06 | 0.33 ± 0.21 | 0.40 ± 0.15 | did not result in proteinuria | – | – | – | – | –
